The target in one assay is gnat1_human GNAT1 (UniProt P11488).
A further assay deals with arl3_mouse Arl3 (UniProt Q9WUL7).
Chain of arl3_mouse Arl3 (Q9WUL7 whole entry): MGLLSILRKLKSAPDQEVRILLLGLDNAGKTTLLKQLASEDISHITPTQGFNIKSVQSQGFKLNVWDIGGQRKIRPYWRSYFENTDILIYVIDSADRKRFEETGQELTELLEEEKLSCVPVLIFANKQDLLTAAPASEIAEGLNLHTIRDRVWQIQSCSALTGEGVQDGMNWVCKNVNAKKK

Chain of gnat1_human GNAT1 (P11488 whole entry): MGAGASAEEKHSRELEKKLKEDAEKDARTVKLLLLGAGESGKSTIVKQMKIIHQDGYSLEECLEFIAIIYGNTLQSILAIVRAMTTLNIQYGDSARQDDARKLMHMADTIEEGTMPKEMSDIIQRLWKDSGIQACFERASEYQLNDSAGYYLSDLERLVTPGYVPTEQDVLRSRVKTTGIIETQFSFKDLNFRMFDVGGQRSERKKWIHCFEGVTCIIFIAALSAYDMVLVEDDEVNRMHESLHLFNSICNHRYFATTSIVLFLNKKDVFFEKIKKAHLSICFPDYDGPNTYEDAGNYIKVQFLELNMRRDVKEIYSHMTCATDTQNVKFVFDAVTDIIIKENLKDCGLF

With “Protein unc-119 homolog A (Homo sapiens) (from UniProt Q13432) Y194A”, the “effect of a mutation on the interaction” value in the assay with gnat1_human GNAT1 and in the assay with arl3_mouse Arl3 was “decreasing interaction” in each case.

These data come from IntAct's records for PubMed 22960633.
